Experimental findings from patent publication WO2009138413A1 (dated 2009) are described below.

One assay deals with human IL-13 (human, UniProt P35225 35-146). Description: cell-based or functional assay.
Another assay concerns the target cynomolgus IL-13 (cynomolgus, UniProt Q0PW92 21-132). The assay is described as follows: cell-based or functional assay.

cynomolgus IL-13, sequence (Q0PW92 entry or part of it): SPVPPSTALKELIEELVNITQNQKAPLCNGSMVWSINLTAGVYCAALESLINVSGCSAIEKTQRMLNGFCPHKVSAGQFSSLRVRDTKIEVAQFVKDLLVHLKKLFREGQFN
human IL-13, sequence (P35225 35-146 limits assumed): as the sequence (Q0PW92 entry or part of it) above, with S1G, K10R, V42M, N67S, R83H, V100L counted along it

B1: DOM10-275-78 (VHH)
VHH: EVQLLESGGGLVQPGGSLRLSCVASGFTFDVAEMDWVRQAPGKGLEWVSTISPSRRGTYYADSVKGRFTISRDNSKNTLYLQMNSLRAEDTAVYYCAKAYTGRSLWGPGTLVTVSS
On to B1, for which, in the assay with human IL-13, the “EC50, FIG. 1A HEK STAT6 assay with human IL-13, sample JAL050308_20p” value was determined as 2.65 nM and the “EC50, FIG. 1A HEK STAT6 assay with human IL-13, sample JAL050308_20s” value stood at 2.42 nM. In the assay with cynomolgus IL-13, the “EC50, FIG. 1B HEK STAT6 assay with cynomolgus IL-13, sample JAL050308_20p” value stood at 1.37 nM and the “EC50, FIG. 1B HEK STAT6 assay with cynomolgus IL-13, sample JAL050308_20s” value is 1.37 nM.

B2: DOM10-53-474 (VHH)
VHH: GVQLLESGGGLVQPGGSLRLSCAASGFTFAWYDMGWVRQAPGKGLEWVSSIDWHGEVTYYADSVKGRFTISRDNSKNTLYLQMNSLRAEDTAVYYCATAEDEPGYDYWGQGTLVTVSS
As for B2, in the assay with human IL-13, the “EC50, FIG. 1A HEK STAT6 assay with human IL-13” value was found to be 0.72 nM. In the assay with cynomolgus IL-13, the “EC50, FIG. 1B HEK STAT6 assay with cynomolgus IL-13” value stood at 10.8 nM.
